Reference: patent US20210301005A1

Experiments:
[1] = target: human TGFβ1, mature receptor-binding domain (human) (UniProt P01137)
[2] = target: human TGFβ2, mature receptor-binding domain (human)
[3] = target: human TGFβ3, mature dimeric form (human) (UniProt P10600)
[4] = target: human TGFβ3, mature dimeric form (human) (UniProt P10600); remark: listed apart in the source

Chain of human TGFβ3, mature dimeric form (human) (P10600 301-412): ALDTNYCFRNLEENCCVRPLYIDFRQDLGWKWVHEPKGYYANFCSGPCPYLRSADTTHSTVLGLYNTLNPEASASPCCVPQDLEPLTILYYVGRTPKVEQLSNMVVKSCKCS
Chain of human TGFβ2, mature receptor-binding domain (human) (P09858 303-414 limits assumed): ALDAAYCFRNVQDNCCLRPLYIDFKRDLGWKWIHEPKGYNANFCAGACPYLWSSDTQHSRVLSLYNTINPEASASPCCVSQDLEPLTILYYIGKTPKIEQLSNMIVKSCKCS
Chain of human TGFβ1, mature receptor-binding domain (human) (P01137 279-390 limits assumed): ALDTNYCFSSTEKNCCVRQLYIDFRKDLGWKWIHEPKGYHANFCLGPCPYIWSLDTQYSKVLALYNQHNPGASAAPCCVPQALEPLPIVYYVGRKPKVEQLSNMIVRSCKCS

B1: Fc-LAP2 (Fc fusion, not shown: a dimerising Fc or GST)
chain: SLSTCSTLDMDQFMRKRIEAIRGQILSKLKLTSPPEDYPEPEEVPPEVISIYNSTRDLLQEKASRRAAACERERSDEEYYAKEVYKIDMPPFFPSENAIPPTFYRPYFRIVRFDVSAMEKNASNLVKAEFRVFRLQNPKARVPEQRIELYQILKSKDLTSPTQRYIDSKVVKTRAEGEWLSFDVTDAVHEWLHHKDRNLGFKISLHCPCCTFVPSNNYIIPNKSEELEARFAGIDGTSTYTSGDQKTIKSTRKKNSGKTPHLLLMLLPSYRLESQQTNRRKKR
With B1 as the binder, how does the IC50 [1] read?
Its IC50 is 10100 nM.

What about the IC50 [2] of the same binder?
The IC50 was 548 nM.

And the IC50 [3]?
Its IC50 is 525 nM.

What about the IC50 (read off the curve) [4] of the same binder?
Its IC50 (read off the curve) is 0.6 nM.

B2: Fc-LAP3 (Fc fusion, not shown: a dimerising Fc or GST)
chain: LSTCTTLDFGHIKKKRVEAIRGQILSKLRLTSPPEPTVMTHVPYQVLALYNSTRELLEEMHGEREEGCTQENTESEYYAKEIHKFDMIQGLAEHNELAVCPKGITSKVFRFNVSSVEKNRTNLFRAEFRVLRVPNPSSKRNEQRIELFQILRPDEHIAKQRYIGGKNLPTRGTAEWLSFDVTDTVREWLLRRESNLGLEISIHCPCHTFQPNGDILENIHEVMEIKFKGVDNEDDHGRGDLGRLKKQKDHHNPHLILMMIPPHRLDNPGQGGQRKKR
B2 was tested. Which IC50 [2] did it give?
The IC50 was 12400 nM.

And the IC50 [3]?
The IC50 was 2920 nM.
